Target: trypsin from porcine pancreas (porcine) (UniProt P00761)
Sequence of UniProt P00761 (P00761 9-231): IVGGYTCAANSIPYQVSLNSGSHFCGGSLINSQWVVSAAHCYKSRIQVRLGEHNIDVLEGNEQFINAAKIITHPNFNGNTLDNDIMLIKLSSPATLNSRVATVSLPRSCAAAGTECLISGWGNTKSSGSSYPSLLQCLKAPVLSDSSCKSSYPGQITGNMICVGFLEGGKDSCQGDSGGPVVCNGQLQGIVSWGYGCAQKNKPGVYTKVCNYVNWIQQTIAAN

- IC50 of inhibition of trypsin activity (cleavage of the Arg6-Cys peptide, read by fluorescence of dC12-AgNCs-peptide/GO at 635 nm; 37 °C, 20 min, 2.0 mM phosphate buffer pH 7.4): 3.6 ng∙mL^−1
B1: Bowman Birk inhibitor (BBI) from soybean (natural protein)
chain: DDESSKPCCDQCACTKSNPPQCRCSDMRLNSCHSACKSCICALSYPAQCFCVDITDFCYEPCKPSEDDKEN

Reference: PMC5134428
